Measurements reported in IntAct's records for PubMed 20404169.

B1: Protein kinase C and casein kinase substrate in neurons protein 1 (Mus musculus), Q61644 (parent)
chain: MSGSYDEASEEITDSFWEVGNYKRTVKRIDDGHRLCNDLMSCVQERAKIEKAYAQQLTDWAKRWRQLIEKGPQYGSLERAWGAMMTEADKVSELHQEVKNSLLNEDLEKVKNWQKDAYHKQIMGGFKETKEAEDGFRKAQKPWAKKMKELEAAKKAYHLACKEERLAMTREMNSKTEQSVTPEQQKKLVDKVDKCRQDVQKTQEKYEKVLEDVGKTTPQYMEGMEQVFEQCQQFEEKRLVFLKEVLLDIKRHLNLAENSSYMHVYRELEQAIRGADAQEDLRWFRSTSGPGMPMNWPQFEEWNPDLPHTTAKKEKQPKKAEGATLSNATGAVESTSQAGDRGSVSSYDRGQTYATEWSDDESGNPFGGNEANGGANPFEDDAKGVRVRALYDYDGQEQDELSFKAGDELTKLGEEDEQGWCRGRLDSGQLGLYPANYVEAI
partner: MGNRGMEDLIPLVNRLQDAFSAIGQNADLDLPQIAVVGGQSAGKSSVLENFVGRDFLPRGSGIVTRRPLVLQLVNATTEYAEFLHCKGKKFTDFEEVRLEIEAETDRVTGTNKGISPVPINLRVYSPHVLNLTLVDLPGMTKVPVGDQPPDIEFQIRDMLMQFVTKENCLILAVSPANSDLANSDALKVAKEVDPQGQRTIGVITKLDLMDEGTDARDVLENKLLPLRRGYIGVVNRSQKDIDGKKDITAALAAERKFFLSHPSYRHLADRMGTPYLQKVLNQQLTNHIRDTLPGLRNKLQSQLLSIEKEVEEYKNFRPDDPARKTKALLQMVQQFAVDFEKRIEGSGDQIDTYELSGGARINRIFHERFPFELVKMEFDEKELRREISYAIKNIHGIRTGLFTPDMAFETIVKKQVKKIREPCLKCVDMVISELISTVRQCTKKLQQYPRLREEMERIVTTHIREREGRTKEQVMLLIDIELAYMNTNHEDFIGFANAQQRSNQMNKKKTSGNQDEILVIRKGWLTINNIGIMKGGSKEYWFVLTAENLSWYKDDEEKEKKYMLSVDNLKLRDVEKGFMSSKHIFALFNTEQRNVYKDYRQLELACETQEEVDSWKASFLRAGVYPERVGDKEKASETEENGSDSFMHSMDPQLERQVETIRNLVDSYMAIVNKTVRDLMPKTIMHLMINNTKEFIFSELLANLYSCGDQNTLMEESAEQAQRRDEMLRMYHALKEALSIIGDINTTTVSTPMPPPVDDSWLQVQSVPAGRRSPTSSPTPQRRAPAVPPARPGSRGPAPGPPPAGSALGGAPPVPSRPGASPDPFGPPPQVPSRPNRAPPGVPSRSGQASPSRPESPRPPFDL

Variants of: B1
Conditions: with dyn1_human DNM1, Q05193

| effect of a mutation on the interaction | Variant |
| --- | --- |
| decreasing interaction strength | D394R;E400R |
| decreasing interaction | E400R |
| decreasing interaction | P434L |
